Data from the RNAGym collection of RNA variant scans (doi:10.1073/pnas.2313332121).

B1: TPR t1 (parent)
chain: GACCAAUCUGCCCUCAGAGCUCGAGAACAUCUUCGGAUGCAGAGGAGGCAGGCUUCGGUGGCGCGAUAGCGCCAACGUCCUCAACCUCCAAUGCAUCCCACCACAUGAUGAUGCCUGAAGAGCCUUGGUUUUUUG

Variants of: B1
Assay: polymerase ribozyme fitness, log enrichment relative to wild type (log ratio); higher = more active; in vitro selection for triplet polymerase activity
Method in brief: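 Input and output libraries were sequenced on Illumina after a single in vitro selection round, run in triplicate on PCR-built, transcribed mutant libraries of each subunit of a heterodimeric triplet polymerase ribozyme. Selection annealed libraries to a biotinylated primer, the partner subunit and triplets, incubated them frozen at −7 °C, then gel-excised extended constructs for streptavidin-bead capture and RT-PCR. Genotypes with ≥10 input reads and ≥1 read per output were kept. Fitness is the logarithm, taken in base 2, of genotype enrichment divided by wild-type enrichment, using inverse-variance-weighted replicate averages.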

Row | Variant | polymerase ribozyme fitness (log ratio)
1 | A29U U112A | -0.754
2 | A16U A26G C88U C124G | -1.11
3 | C3A C115U U125A U129G | -5.92
4 | C13U G60C G61A G117A | -2.25
5 | C79A G93A G110U | -4.93
6 | A5U G122A | -0.551
7 | U32G G48U C72G C102U G120C | -7.94
8 | A66U G71A | -2.53
9 | C20A U54G C94U | -3.21
10 | C94A A121U | 1.37
11 | A68G G110U | -3.66
12 | G36A G63A U78C | -1.53
13 | G10A U38G | 0.0174
14 | C20A A43U G113C | -5.17
15 | G69C A84G A118U G127A | -2.68
16 | G17A G69U | -1.14
17 | A50U G93C | -1.95
18 | C8U C34A G35U G63U C82U G120A U130A | -4.37
19 | C49U C97G | -5.89
20 | G61A C88A G120C A121U | 0.393
21 | A83C A91G A111G | -1.85

Row | Variant | polymerase ribozyme fitness (log ratio)
22 | G19A G117A | -4.95
23 | C20A A46U C72U U129A | -6.73
24 | G52U C72A C85A | -1.3
25 | C62U C85G U87C | -2.53
26 | A46U A74G C101A | -3.42
27 | C12U A37U | 0.327
28 | G36A G117U | -4.6
29 | C22U C73U U78A C89G U112A C124A | -6.98
30 | C12U U78C | -0.312
31 | C82U C85A A121U | 0.305
32 | A5C G17U A50C C88A | -4.51
33 | C72G C86U A111U C115A | -4.83
34 | A5U C123A | 1.2
35 | A18C G61C | -2.87
36 | A37C G52C G60A C86U | -2.95
37 | G42A G52C | -2.26
38 | C13U C79A A90C | -2.88
39 | C20U G35U | -5.32
40 | C3A A6C C12A A50G C56G | -3.05
41 | A41U G71A U92A G127C | -3.79
42 | C49A G71U U92A C123U | -2.65

Row | Variant | polymerase ribozyme fitness (log ratio)
43 | C12U G110A | 0.122
44 | C64U A100U | -0.493
45 | U9C U14A G36C | -1.95
46 | C40U G57U C79A | -1.3
47 | A18C C40A U78G C82G A121U U130A | -3.87
48 | C49U G63U | -2
49 | A74G A95U | -0.0785
50 | A5U G44A C56U G117A | -3.69
51 | A41G C53G A84C U126A | -2.86
52 | C70U U131G | -2.36
53 | G51A C124A | -1.48
54 | A43C G47A C56U G57A C62U A103C | -6.45
55 | C94A C97U G120U | -1.04
56 | G71A G107A | -4.98
57 | G36U C56A U132A | -1.83
58 | G60U C80U U106G U129G | -6.15
59 | C62A C85A | -2.47
60 | C15U A46G A84U U112A G113U G120U | -4.78
61 | C11G A43C C62U U129C U130G | -3.83
62 | C8U G61C U116A | -3.22
63 | G61A C86A | -0.514

Row | Variant | polymerase ribozyme fitness (log ratio)
64 | C56U C72A C89A | -2.41
65 | C13U C72A | 0.891
66 | U21A C102G G113U A118U U129G | -6.08
67 | C8A A43G C70U | -2.74
68 | A41U U126G | -3.66
69 | A29U C89U | -2.05
70 | C4A U7C C49G A50U C88G | -2.88
71 | G36A C64U | -0.622
72 | C49U A66G | -1.95
73 | G36A U54A C89G C101G | -5.15
74 | C73A G107A | -5.21
75 | A18G C62U | -2.68
76 | C49A G61A G110U U125C | -2.14
77 | C12U C28A C40U | -4.66
78 | C13G A46C U78C C86A | -4.39
79 | C11G C13U C70G C97A A103C C123U | -7.22
80 | U32A | -3.82
81 | A6C U9G G47C G63A A83U G120U | -1.35
82 | A2C A37C C94U U96A U112C C114U | -4.55
83 | G58A | 0.0445
